Assay [1] concerns the target T1, human serum amyloid A1 (SAA1) (human, UniProt P0DJI8 19-122).
T1 sequence (looked up): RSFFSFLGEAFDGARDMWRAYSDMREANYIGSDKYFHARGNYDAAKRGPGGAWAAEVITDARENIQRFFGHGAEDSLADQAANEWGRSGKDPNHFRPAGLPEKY
Nature of the assay: cell-based or functional assay.

Assay [2] has as its target T1, human serum amyloid A1 (SAA1). Briefly: Kd calculated from competitive binding curves (competitive peptide 0.625-80 nM against SAA1 at 150 ng/ml), NFκB-luciferase reporter cell readout. The procedure: Raw 264.7-NFκB-Luc cells were seeded at a density of 60,000 cells in 40 μl media/well in a 96-well plate. The plate was placed at 37° C. in a 5% CO₂ incubator overnight to allow cells to adhere. 5 μL of SAA1 antigen solution (150 ng/ml) was added to each well. 10 μL of the competitive antigen standard solution was added to the respective wells. 10 μL of the purified antibody (18A3-S1-F) solution was added to each well.
The plate was incubated at 37° C. in a 5% CO₂ incubator for 2 hours to allow binding between the antibody and antigens. 10 μL of the viability dye (i.e., the Cell Titer Fluor reagent; Promega) was added, and the plate was rocked for 5 minutes and incubated at 37° C. in a 5% CO₂ incubator for 30 minutes. Then […] reading was taken with 7-amino-4-trifluoromethyl-coumarin (AFC) (excitation 405 nm/emission […]). After 3 hours, 1:1 Bright Glo Luciferase reagent (Promega) was added, and the plate was rocked for 5 minutes in dark (covered with foil) before the reading was taken.
The dissociation constant (Kd) was calculated from the competitive binding curves (FIG. 4E). The lower the Kd value, the higher the binding affinity of the antibody.

These results are taken from patent publication US20260176335A1 (TRUSTEES OF COLUMBIA UNIVERSITY IN THE CITY OF NEW YORK, published 2026).

B1: murine anti-SAA1 18A3 antibody (antibody, V domains shown)
VH: DVQLVESGGGLVQSGGSRKLSCAASGFTFSRFGMHWVRQAPEKGLEWVAYISRGSTKIYYADTVKGRFTISRDNPRNTLFLQMTSLRSEDTAMYYCARSLIYYDYDGFGYWGQGTLVTVSA
VL: DVLMTQTPLSLPLSLGDQASISCRSSQSIVHSNGNTYLEWYLQKPGQSPKLLIYKVSNRFSGVPDRFSGSGSGTDFTLKISRVEAEDLGVYYCFQGSHVPPTFGGGTKLEIK
notes: Murine hybridoma monoclonal antibody; Tested as hybridoma supernatant or as purified antibody from subclone 18A3-S1-F / 18A3-S1; also called 18A3-S1-F; 18A3-S1
For orientation: Kd means the free concentration of one partner at which half of the binding sites on the other are occupied at equilibrium, for simple one-to-one binding. For the molecule B1, the “EC50 (half-maximal inhibition of SAA1-induced NFκβ activation, reporter assay)” value in assay [1] came to 2.55 nM. Besides, the Kd in assay [2] is 0.94 to 1.12 nM.
